Experimental data published in patent publication US20240092848A1 (UNIVERSIT LIBRE DE BRUXELLES, published 2024).
Blank lines part the entries; values can stand above or below the binder they belong to. Side chains are listed from the residue outwards. Ends that are not written are not given here. AFM tip = not defined here

Assays:
[1] = molecular target: T1, Reck-CK-Fc; experiment: isothermal titration calorimetry with Reck-CK-Fc, 25 °C
T1 chain: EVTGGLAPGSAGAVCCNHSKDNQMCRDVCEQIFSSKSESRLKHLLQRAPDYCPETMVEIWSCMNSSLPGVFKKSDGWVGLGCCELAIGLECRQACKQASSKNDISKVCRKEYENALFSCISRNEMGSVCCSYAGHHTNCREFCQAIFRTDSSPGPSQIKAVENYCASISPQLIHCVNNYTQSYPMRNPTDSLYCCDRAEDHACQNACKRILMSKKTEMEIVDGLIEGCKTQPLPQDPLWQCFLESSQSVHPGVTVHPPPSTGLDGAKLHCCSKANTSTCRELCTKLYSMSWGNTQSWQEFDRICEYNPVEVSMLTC

[2] = molecular target: T2, HA-Reck; experiment: proximity ligation assay (anti-V5/anti-HA), with against without co-expressed Gpr124
T2 construct: whole, on cells; Co-expressed with V5-tagged Wnt ligands in GPR124-/-;RECK-/- HEK293 cells for PLA
T2 sequence (O95980 23-942, species assumed, looked up): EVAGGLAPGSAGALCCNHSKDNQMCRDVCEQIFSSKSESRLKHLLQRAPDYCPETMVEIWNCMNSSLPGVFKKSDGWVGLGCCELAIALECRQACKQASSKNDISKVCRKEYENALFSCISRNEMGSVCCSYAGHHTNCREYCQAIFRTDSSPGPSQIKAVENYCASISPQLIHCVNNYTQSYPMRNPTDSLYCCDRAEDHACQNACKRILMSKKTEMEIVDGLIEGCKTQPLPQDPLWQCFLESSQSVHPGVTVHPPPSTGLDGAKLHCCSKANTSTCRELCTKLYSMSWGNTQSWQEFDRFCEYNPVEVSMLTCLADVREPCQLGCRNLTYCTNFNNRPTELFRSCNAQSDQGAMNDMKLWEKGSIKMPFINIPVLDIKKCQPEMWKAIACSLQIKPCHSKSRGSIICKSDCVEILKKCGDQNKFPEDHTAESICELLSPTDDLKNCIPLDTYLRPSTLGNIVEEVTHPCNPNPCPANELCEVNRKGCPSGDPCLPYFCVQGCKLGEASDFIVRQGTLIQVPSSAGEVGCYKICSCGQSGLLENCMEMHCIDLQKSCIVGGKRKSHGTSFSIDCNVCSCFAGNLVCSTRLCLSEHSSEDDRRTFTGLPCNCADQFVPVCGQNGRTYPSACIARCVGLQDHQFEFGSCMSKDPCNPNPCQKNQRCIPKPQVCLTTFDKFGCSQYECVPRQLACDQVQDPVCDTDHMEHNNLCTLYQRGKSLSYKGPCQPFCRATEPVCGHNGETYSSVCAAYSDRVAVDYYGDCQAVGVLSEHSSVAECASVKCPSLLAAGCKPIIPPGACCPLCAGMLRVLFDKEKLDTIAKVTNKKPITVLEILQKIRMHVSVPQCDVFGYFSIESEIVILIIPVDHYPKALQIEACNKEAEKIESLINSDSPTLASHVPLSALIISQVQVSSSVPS
Experimental: Cells were fixed with 4% paraformaldehyde for 10 min at room temperature (RT) 48 h post transfection. For immunofluorescence staining (IF), cells were blocked in 1% BSA-PBS for 30 min before being exposed to primary antibodies for 1 h at RT. After three PBS washes, cells were incubated with secondary antibodies for 1 h at RT. For anti-V5 staining of Wnt ligands, cells were additionally washes for 10 min in PBS 0.1% Tween 20 before incubation with the secondary antibody solution. For the proximity ligation assay (PLA) (Sigma-Aldrich, St. Louis, MO), cells were blocked for 30 min at 37° C. with the Blocking solution provided by the manufacturer before being incubated with the primary antibodies for 1 h at RT. Cells were washed three times and incubated with the PLA probes anti-rabbit PLUS and anti-mouse MINUS for 1 h at 37° C. […]
Although Reck appears to be the dominant Wnt7 binding determinant, its function in Wnt signaling is known to rely on its capacity to form a complex with Gpr124 through its N-terminal CK domain (Y. Zhou, J. Nathans, Dev. Cell. 31, 248-256 (2014); B. Vanhollebeke et al., Elife. 4, 1-25 (2015)), a domain that is shown herein to be additionally implicated in Wnt7a binding. […] However, a 4-fold increase in Wnt7a-V5/HA-Reck PLAs signals was detected upon co-expression of untagged Gpr124 (FIG. 1F). […]

[3] = molecular target: T1, Reck-CK-Fc; experiment: single-molecule force spectroscopy (AFM tip with PEG-linked pWnt7b, surface coated with Reck-CK-Fc on protein G)
[4] = molecular target: T1, Reck-CK-Fc; experiment: isothermal titration calorimetry, peptide titrated into Reck-CK-Fc, 25 °C

Kd [1]: 1.2 µM
B1: pWnt7b (peptide)
peptide: VEVVRASRLRQPTFLRIKQLRSYQKPMET
notes: also called synthetic Wnt7b linker peptide

Kd [3]: 5 µM
B3: pWnt7b peptide on the AFM tip (peptide)
peptide: VEVVRASRLRQPTFLRIKQLRSYQKPMETC([NHS‑PEG27‑maleimide linker-AFM tip])
modifications: reading uncertain
notes: Used in single-molecule force spectroscopy; also called Pep7b

More lines, now with the values behind:

B2: Wnt7a-V5 (ligand)
chain: LGASIICNKIPGLAPRQRAICQSRPDAIIVIGEGSQMGLDECQFQFRNGRWNCSALGERTVFGKELKVGSREAAFTYAIIAAGVAHAITAACTQGNLSDCGCDKEKQGQYHRDEGWKWGGCSADIRYGIGFAKVFVDAREIKQNARTLMNLHNNEAGRKILEENMKLECKCHGVSGSCTTKTCWTTLPQFRELGYVLKDKYNEAVHVEPVRASRNKRPTFLKIKKPLSYRKPMDTDLVYIEKSPNYCEEDPVTGSVGTQGRACNKTAPQASGCDLMCCGRGYNTHQYARVWQCNCKFHWCCYVKCNTCSERTEMYTCK
modifications: palmitoleic acid at Serine 206 (precursor numbering)
notes: Transiently expressed in HEK293 cells; also called V5-tagged Wnt7a; full-length Wnt7a; not shown: V5 tag
fold increase in PLA signal upon co-expression of untagged Gpr124 [2]: 4 fold

B4: pWnt7a (peptide)
peptide: VEPVRASRNKRPTFLKIKKPLSYRKPMDT
notes: Synthetic, purity over 90%; also called synthetic Wnt7a linker peptide; pWnt7a 238-266
Kd [4]: 7 µM
